This assay has as its target SARS-CoV Urbani RBD (SARS-CoV Urbani, UniProt P59594). The assay can be described thus: ELISA.

B1: S2X324 mAb (antibody, V domains shown)
VH: QITLKESGPTLVKPTQTLTLTCTFSGFSVTTSGVGVGWIRQPPGKALEYLALIYWDDDKRYSTSLKSRLTITKDTSKNQVVLTMTNMDPVDTATYYCARHTIPSIFDYWGQGILVTVSS
VL: QPVLTQPASVSGSPGQSITISCTATSSDVGNYNYVSWYQHHPGKAPKLMIYEVSNRPSGVSNRFSGSKSGNTASLTISGLQAEDEADYYCSSYTSSSLLFGGGTKLTVL
B1: the binding result is given as “no binding”.

These data come from publication PMC9176643 (bioRxiv, 2022).
